According to patent publication WO2004044204A2 (dated 2004):

What was measured:
[1] = target: T1, β-amyloid peptide 1-42; assay: ELISA with overlapping peptides that are fragments of Aβ42; the affinity is told for the carboxy terminal part
T1 construct: Synthesised on solid phase; It was coated on plates or used in solution; one result is told for its fibrillar form; also called Aβ42; peptide Aβ42

[2] = target: T1, β-amyloid peptide 1-42; assay: competition ELISA

| Binder | Kd [1] [nM] | Kd [2] [nM] |
| --- | --- | --- |
| VHH ALZ V31-1 (VHH, Alpaca VHH, produced soluble in E. coli HB2151 from pHEN-1; It was detected with anti-c-myc 9E10; also called VHH-V31-1; VHH V31-1) VHH: EVQLQASGGGSVQPGGSLRLSCAASGFIFGWSTMSWVRQAPGKGLEWVSTISGGGSATTYTDSVKGRFTISRDRAKNTLYLQMNSLKPEDTAIYYCNADVSTGFRYQRKDYWGRGTQVTVSS | ~10 | – |
| VHH ALZ L1-3 (VHH, Alpaca VHH, produced soluble in E. coli HB2151 from pHEN-1 and tested as culture supernatant; It was detected with anti-c-myc 9E10; also called VHH ALZ Ll-3; VHH-L1-3) VHH: EVQLQASGGGLVQAGGSLRLSCSASASTTFSMNTMAWHRQAPGKQRSLVALIGATHSINYEDSVKGRFTISRDNAKNTVYLQMSSLKPEDTAVYYCNDWYWQMKGGSWGQGTQVTVSS | – | 60 |
| VHH ALZ L35 (VHH, Alpaca VHH, produced soluble in E. coli HB2151 from pHEN-1 and tested as culture supernatant; It was detected with anti-c-myc 9E10; also called VHH-L35; VHH L35) VHH: EVQLQASGGGLVQAGGSLRLSCAASGSTFSINVIGWYRQAPGKQRELVAGISRSGNTNYADSVEGRFTISRDYAKNTVYLQMNSLKPEDTAVYYCHSKTYLLHMYWGQGTQVTVSS | – | 30 |
